Assay results reported in US20250250357A1 (NANJING ZAIMING PHARMACEUTICAL, published 2025).
Positions count from the first letter of the chain named. Like-named read-outs stand apart in the source and are kept apart here. One block for each binder: values may come before it.

Key:
[1] = biological target: T1, human MSLN-FL-his protein (human, UniProt Q13421 296-580); assay: SPR (Biacore), antibody captured on Protein A, MSLN-FL-his injected
T1 construct: also called hMSLN-FL-his; human MSLN full-length protein

[2] = biological target: human MSLN on OVCAR3 tumor cells (human, UniProt Q13421 296-598); assay: FACS, OVCAR3 cells
[3] = biological target: T2, human MSLN-R3 on HEK293T-hMSLN-R3 recombinant cells (human, UniProt Q13421 487-606); assay: FACS, HEK293T-hMSLN-R3 cells
T2 construct: the C-terminal limit is uncertain; also called human MSLN-R3 membrane protein

[4] = biological target: T3, monkey MSLN on HEK293T-monkey MSLN recombinant cells (monkey); assay: FACS, HEK293T-monkey MSLN cells
T3 construct: Full-length precursor as transfected; processing on the cell is not described; also called HEK293-monkey MSLN
T3 chain: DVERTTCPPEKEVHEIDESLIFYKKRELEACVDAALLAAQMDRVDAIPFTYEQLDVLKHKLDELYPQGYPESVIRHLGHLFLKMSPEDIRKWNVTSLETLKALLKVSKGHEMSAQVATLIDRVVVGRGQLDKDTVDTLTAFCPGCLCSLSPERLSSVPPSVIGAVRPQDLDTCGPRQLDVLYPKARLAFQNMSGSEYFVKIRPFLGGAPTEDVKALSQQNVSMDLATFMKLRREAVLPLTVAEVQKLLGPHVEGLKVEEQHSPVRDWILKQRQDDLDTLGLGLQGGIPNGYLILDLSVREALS

[5] = biological target: T4, human MSLN on OVCAR3 tumor cells (human, UniProt Q13421 296-598); assay: FACS, OVCAR3 cells
T4 construct: whole, on cells; also called human MSLN protein

human MSLN-R3 protein [6] = biological target: T5, human MSLN-R3 protein (human, UniProt Q13421 487-598); assay: ELISA, MSLN-R3 coated, antibody 0.1 nM
T5 construct: also called hMSLN-R3

human MSLN-R3 protein [7] = biological target: T5, human MSLN-R3 protein; assay: ELISA, MSLN-R3 coated, antibody 0.001 nM
human MSLN-R3 protein [8] = biological target: T5, human MSLN-R3 protein; assay: ELISA, MSLN-R3 coated, antibody 0.0001 nM
human MSLN-R3 protein [9] = biological target: T5, human MSLN-R3 protein; assay: ELISA, MSLN-R3 coated, antibody 100 nM
human MSLN-R3 protein [10] = biological target: T5, human MSLN-R3 protein; assay: ELISA, MSLN-R3 coated, antibody 1 nM
human MSLN-R3 protein [11] = biological target: T5, human MSLN-R3 protein; assay: ELISA, MSLN-R3 coated, antibody 10 nM
[12] = biological target: T2, human MSLN-R3 on HEK293T-hMSLN-R3 …; assay: FACS, HEK293T-hMSLN-R3 cells; remark: listed apart in the source
human MSLN-R3 protein [13] = biological target: T5, human MSLN-R3 protein; assay: ELISA, MSLN-R3 coated, antibody 0.01 nM
[14] = biological target: T3, monkey MSLN on HEK293T-monkey MSLN …; assay: FACS, HEK293T-monkey MSLN cells
[15] = biological target: T6, human MSLN-hFc recombinant protein (human, UniProt Q13421 296-580); assay: SPR (Biacore 8K), MSLN-hFc captured, antibody injected
T6 construct: Captured by an anti-human IgG antibody on the chip; also called human MSLN protein; Acro MSN-H5253

[16] = biological target: T7, human MSLN-hFc protein (Acro, Cat. No. MSN-H5253) (human, UniProt Q13421 296-580); assay: ELISA, coated human MSLN-hFc
T7 construct: bought

[17] = biological target: T8, human MSLN-R3-his protein (human, UniProt Q13421 487-598); assay: ELISA; antibody 0 nM (blank)
T8 construct: also called hMSLN-R3-his; not shown: His tag

[18] = biological target: T8, human MSLN-R3-his protein; assay: ELISA; antibody 0.01 nM
[19] = biological target: T8, human MSLN-R3-his protein; assay: ELISA; antibody 0.001 nM
[20] = biological target: T9, human MSLN-R2-his protein (human, UniProt Q13421 391-486); assay: ELISA; antibody 0.0001 nM
T9 construct: also called hMSLN-R2-his; not shown: His tag

[21] = biological target: T8, human MSLN-R3-his protein; assay: ELISA; antibody 0.1 nM
[22] = biological target: T10, human MSLN-R3-3 polypeptide (human); assay: ELISA; antibody 1 nM
T10 construct: also called hMSLN-R3-3

[23] = biological target: T9, human MSLN-R2-his protein; assay: ELISA; antibody 1 nM
[24] = biological target: T8, human MSLN-R3-his protein; assay: ELISA; antibody 1 nM
[25] = biological target: T9, human MSLN-R2-his protein; assay: ELISA; antibody 0.01 nM
[26] = biological target: T9, human MSLN-R2-his protein; assay: ELISA; antibody 0.001 nM
[27] = biological target: T9, human MSLN-R2-his protein; assay: ELISA; antibody 100 nM
[28] = biological target: T8, human MSLN-R3-his protein; assay: ELISA; antibody 100 nM
[29] = biological target: T8, human MSLN-R3-his protein; assay: ELISA; antibody 1 nM; remark: listed apart in the source
[30] = biological target: T8, human MSLN-R3-his protein; assay: ELISA; antibody 10 nM
[31] = biological target: T9, human MSLN-R2-his protein; assay: ELISA; antibody 0 nM (blank)
[32] = biological target: T9, human MSLN-R2-his protein; assay: ELISA; antibody 0.1 nM
[33] = biological target: T9, human MSLN-R2-his protein; assay: ELISA; antibody 10 nM
[34] = biological target: T9, human MSLN-R2-his protein; assay: ELISA; antibody 1 nM; remark: listed apart in the source
[35] = biological target: T8, human MSLN-R3-his protein; assay: ELISA; antibody 0.0001 nM

T8 sequence (Q13421 495-606): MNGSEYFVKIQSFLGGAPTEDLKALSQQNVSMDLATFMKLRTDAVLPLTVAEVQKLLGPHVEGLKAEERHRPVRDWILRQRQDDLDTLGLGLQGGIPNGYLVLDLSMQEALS
T5 sequence (Q13421 495-606): as above
T9 sequence (Q13421 other isoform, or with tags, fused parts or gaps): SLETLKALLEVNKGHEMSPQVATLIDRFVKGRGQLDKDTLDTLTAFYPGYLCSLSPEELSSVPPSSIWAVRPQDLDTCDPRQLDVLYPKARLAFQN
T2 sequence (Q13421 495-614): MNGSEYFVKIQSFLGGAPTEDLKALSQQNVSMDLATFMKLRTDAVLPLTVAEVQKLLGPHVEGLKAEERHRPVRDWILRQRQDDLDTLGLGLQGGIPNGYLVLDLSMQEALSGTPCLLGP
T7 sequence (Q13421 other isoform, or with tags, fused parts or gaps limits assumed): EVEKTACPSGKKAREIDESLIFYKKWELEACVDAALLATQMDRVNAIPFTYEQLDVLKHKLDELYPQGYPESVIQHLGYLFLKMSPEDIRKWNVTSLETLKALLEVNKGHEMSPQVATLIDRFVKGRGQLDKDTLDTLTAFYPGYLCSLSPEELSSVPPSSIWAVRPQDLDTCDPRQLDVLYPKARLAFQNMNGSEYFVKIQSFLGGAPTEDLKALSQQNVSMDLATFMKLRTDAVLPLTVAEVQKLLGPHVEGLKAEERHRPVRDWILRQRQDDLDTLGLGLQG
T6 sequence (Q13421 other isoform, or with tags, fused parts or gaps): as the sequence (Q13421 other isoform, or with tags, fused parts or gaps limits assumed) above

binding result [1]: no binding
B1: S009-F3.7.3 (antibody, human IgG1, kappa, V domains shown)
VH: EVNFEESGGGLVQPGGSMKLSCVASGFTFSNYWMNWVRQSPEKGLEWVAQIRLKSDNYATHYAESVKGRFTISRDDFKSSVYLQMNNLRAEDTGIYYCTVGTGGYWGQGTTLTVSS
VL: DIVLTQSPASLAMSLGKRATISCRASESVSIVGTNVIHWFQQKPGQPPKLLIYHASNLETGVPARFSGSGSGTDFTLTIDPVEEDDVAIYHCLQSRKIPWTFGGGTKLEIKR
notes: chimeric, human IgG1/kappa

binding result [1]: no binding
B2: S009-F3.16.1 (antibody, human IgG1, kappa, V domains shown)
VH: B1 VH with N3K, T71S, F77S, T99S
VL: B1 VL with M13L, L15P, V32I, N35D, G72R, H91Y
notes: chimeric, human IgG1/kappa

EC50 [2]: 4.75 nM
Maximum_MFI [2]: 2260 MFI
EC50 [3]: 1.63 nM
Maximum_MFI [3]: 1490 MFI
EC50 [4]: 7.97 nM
Maximum_MFI [4]: 8910 MFI
B3: F7.33.24 (scFv)
chain: QVQLQQPGTELVKPGASVKLSCKASGYTFTSYWMHWVKQRPGQGLEWIGNVNPSNGGSNYNEKFKNKATLTVDKSSSTADMQLNSLTSEDSAVYYCAPHYIGSRPGFAYWGQGTLVTVSGGGGGSGGGGSGGGGSDIVMTQSQKFMSTSVGDRVSVTCKASQNVGTNIAWYQQKPGQSPKALIYSASYRYSGVPDRFTGSGSGTDFTLTITNVQSEDLAEYFCQQYNSYPLTFGGGTKVEIK

EC50 [5]: 99.8 nM
OD450 nm (human MSLN-R3 protein [6]): 0.08 OD
OD450 nm (human MSLN-R3 protein [7]): 0.07 OD
OD450 nm (human MSLN-R3 protein [8]): 0.07 OD
OD450 nm (human MSLN-R3 protein [9]): 2.36 OD
OD450 nm (human MSLN-R3 protein [10]): 0.27 OD
OD450 nm (human MSLN-R3 protein [11]): 1.19 OD
EC50 [12]: 12 nM
Maximum_MFI [12]: 1280 MFI
OD450 nm (human MSLN-R3 protein [13]): 0.07 OD
EC50 [14]: 90.1 nM
binding result [15]: no binding
B4: F3.38.10-L1H5 (scFv, not shown: small tags and cut ends)
scFv: DIVMTQTPLSLPVTPGEPASISCRSSQSLIHSDGNTYLQWYLQKPGQSPQLLIYKVSNRFSGVPDRFSGSGSGTDFTLKISRVEAEDVGVYYCSQTTHVPFTFGQGTKLEIKGGGGSGGGGSGGGGSEVQLVQSGAEVKKPGASVKVSCKASGYIFTDYYMNWVRQAHGQRLEWMGVINPKNGVISHNQKFKGRVTITVDKSANTAYMELSSLRSEDTAVYYCANYGSRFYAMDYWGQGTTVTVSS
notes: also called S009-F3.38.10 humanized antibody VL1 + VH5

binding result [16]: no binding (tested: up to 100 nM)
B5: F3.38.10-L1H5 (scFv, not shown: small tags and cut ends)
scFv: B4 scFv

binding result [16]: no binding (tested: up to 100 nM)
B6: F3.38.10-L2H3a (scFv, not shown: small tags and cut ends)
scFv: DIVMTQSPDSLAVSLGERATINCRSSQSLIHSDGNTYLQWYQQKPGQSPKLLIYKVSNRFSGVPDRFSGSGSGTDFTLTISSLQAEDVAVYYCSQTTHVPFTFGQGTKLEIKGGGGSGGGGSGGGGSEVQLVQSGAEVKKPGASVKVSCKASGYIFTDYYMNWVRQAPGQRLEWMGVINPKQGVISHNQKFKGRVTITVDKSANTAYMELSSLRSEDTAVYYCANYGSRFYAMDYWGQGTTVTVSS

OD450 nm [17]: 0.05
OD450 nm [18]: 0.05
OD450 nm [19]: 0.05
OD450 nm [20]: 0.05
OD450 nm [21]: 0.05
OD450 nm [22]: 0.09
OD450 nm [23]: 1.49
OD450 nm [24]: 0.05
OD450 nm [25]: 0.07
OD450 nm [26]: 0.05
OD450 nm [27]: 2.5
OD450 nm [28]: 0.05
OD450 nm [29]: 0.05
OD450 nm [30]: 0.05
OD450 nm [31]: 0.05
OD450 nm [32]: 0.2
OD450 nm [33]: 2.01
OD450 nm [34]: 1.49
OD450 nm [35]: 0.05
B7: Tab020 (YP223, rabbitIgG1) (antibody, V domains shown)
VH: QEQLEESGGDLVQPEGSLTLTCKASGLDFSSSYWICWVRQAPGKGLEWIGCRHTFTANTWSASWVNGRFTISRSTSLGTVDLKMTSLTAADTATYFCARDESNNDGWDFKLWGPGTLVTVSS
VL: AYDMTQTPASVSAAVGGTVTIKCQASQSISNYLAWYQQKPGQPPKLLIYQASTLAPGVSSRFKGSGSGTEFTLTISGVECADAATYYCQQGYTSSNVENVFGGGTGVVVGD
notes: Control antibody; VH and VL recombined into rabbit IgG1 CH and CL expression vectors; also called YP223 rabbit IgG1 antibody; rabbit anti-human MSLN antibody
